Assay results reported in patent US20240043530A1 (JIANGSU HENGRUI PHARMACEUTICALS, published 2024).
Read-outs that look alike come from different tables or passages of the source. Blank lines part the entries; values can stand above or below the molecule they belong to.

Experiments:
[1] = target: human PVRIG expressed on the cell surface (human) (UniProt Q6DKI7); experiment: cell-based or functional assay
[2] = target: T1, human PVRIG expressed on the cell surface (human, UniProt Q6DKI7 41-326); experiment: cell-based or functional assay
T1 sequence (looked up): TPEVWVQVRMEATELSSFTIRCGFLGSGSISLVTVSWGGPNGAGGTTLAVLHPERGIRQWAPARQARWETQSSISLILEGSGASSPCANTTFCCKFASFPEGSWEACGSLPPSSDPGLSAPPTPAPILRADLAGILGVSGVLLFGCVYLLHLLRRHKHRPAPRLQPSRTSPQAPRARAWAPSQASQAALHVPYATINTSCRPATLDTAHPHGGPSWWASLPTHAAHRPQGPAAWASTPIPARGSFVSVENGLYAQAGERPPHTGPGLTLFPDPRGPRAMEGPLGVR

[3] = target: T1, human PVRIG expressed on the cell …; experiment: cell-based or functional assay; remark: listed apart in the source
[4] = target: T1, human PVRIG expressed on the cell …; experiment: cell-based or functional assay; remark: listed apart in the source
[5] = target: T1, human PVRIG expressed on the cell …; experiment: cell-based or functional assay; remark: listed apart in the source
[6] = target: T1, human PVRIG expressed on the cell …; experiment: cell-based or functional assay; remark: listed apart in the source
[7] = target: T2, his-tagged cynomolgus monkey PVRIG recombinant protein (cynomolgus monkey); experiment: ELISA, plate coated with cynomolgus monkey PVRIG recombinant protein, HRP anti-human IgG, OD450 (method of Example 4)
T2 construct: expressed in HEK293, purified by Ni-NTA; also called cyno-PVRIG-his; Cynomolgus monkey PVRIG-his
T2 chain: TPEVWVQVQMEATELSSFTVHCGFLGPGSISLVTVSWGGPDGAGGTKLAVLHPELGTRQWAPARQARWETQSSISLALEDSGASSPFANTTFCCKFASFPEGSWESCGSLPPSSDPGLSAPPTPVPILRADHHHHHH
Procedure: Human, cynomolgus monkey or mouse PVRIG protein (at a concentration of 1 μg/mL) was coated on a 96-well microplate at 100 μL per well, and incubated overnight at 4° C. The plate was washed three times with a washing solution at 250 μL per well. For each wash, the plate was shaken for 10 s to ensure adequate cleaning. A blocking solution (PBS+0.05% Tween20+1% BSA) was added at 300 μL per well and the plate was incubated at room temperature for 1 h. The plate was washed three times with a washing solution at 250 μL per well. For each wash, the plate was shaken for 10 s to ensure adequate cleaning. The test anti-PVRIG antibody diluted in diluent was added at 100 μL per well. The mixture was incubated at 37° C. for 1 h. The plate was washed three times with a washing solution at 250 μL per well. HRP-labeled anti-human IgG secondary antibody (Sigma, A8667) was added at 100 μL per well. The mixture was incubated at 37° C. for 1 h. The plate was washed three times with a washing solution at 250 μL per well. […] The OD values at 450 nm were read by using a Thermo MultiSkanFc microplate reader, and the EC₅₀ values of the binding of the anti-PVRIG antibodies to PVRIG were calculated.
(§1) Binding of the humanized anti-PVRIG/TIGIT bispecific antibodies to human and cynomolgus monkey PVRIG and their blocking of the ligand of human PVRIG were detected according to the methods of Examples 4, 5 and 6.

[8] = target: T3, cynomolgus monkey PVRIG expressed on the cell surface (cynomolgus monkey, UniProt A0A2K5WVV8 1-322); experiment: flow cytometry on cells overexpressing cynomolgus monkey PVRIG, labelled anti-human IgG (method of Example 5)
T3 construct: whole, on cells; also called cells overexpressing cynomolgus monkey PVRIG; Monkey PVRIG FACS
T3 sequence: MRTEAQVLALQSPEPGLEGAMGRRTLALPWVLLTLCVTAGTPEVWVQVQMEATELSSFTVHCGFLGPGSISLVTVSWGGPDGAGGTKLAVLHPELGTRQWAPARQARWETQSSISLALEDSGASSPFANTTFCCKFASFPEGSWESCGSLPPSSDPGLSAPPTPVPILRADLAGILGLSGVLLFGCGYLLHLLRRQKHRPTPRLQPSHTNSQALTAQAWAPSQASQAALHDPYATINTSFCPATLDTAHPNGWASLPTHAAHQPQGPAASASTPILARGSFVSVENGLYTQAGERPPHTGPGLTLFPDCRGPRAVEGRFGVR
Procedure: The expression plasmid carries human or cynomolgus monkey PVRIG gene sequence was transfected into HEK293 cells, and the over-expressing stable transfection monoclonal cell strain was obtained by antibiotic screening and infinite dilution. Overexpressing cells were seeded into a 96-well plate at 2×10⁵ cells/per well. The cells were centrifuged at 300 g for 5 min, the supernatant was then removed, 100 μL of the test antibody was added, and the mixture was incubated at 4° C. for 1 h. The mixture was centrifuged, the supernatant was removed, the plate was washed 3 times with 200 μL of a washing solution (PBS+2% FBS), and then 100 μL of an anti-human IgG secondary antibody (Invitrogen, A-11013) labeled with Alexa Fluor 488 diluted at 1:500 was added. The mixture was incubated at 4° C. for 1 h. The mixture was centrifuged, the supernatant was removed, and the plate was washed 3 times with 200 μL of a washing solution (PBS+2% FBS). Cells were resuspended in 100 μL of PBS and detected by a flow cytometer (BD FACS Calibur or BD FACS Canto_II).
as §1

IFNγ (pg/mL) in mixed lymphocyte reaction, 20 nM antibody (control) [1]: 74 pg/mL
IFNγ (pg/mL) in mixed lymphocyte reaction, 100 nM antibody (control) [1]: 89 pg/mL
Molecule: IgG4 control antibody
Killing activity (%) of NK92 on K562, 4 nM antibody (control) [1]: 11.2%
Killing activity (%) of NK92 on K562, 20 nM antibody (control) [1]: 11.7%
Killing activity (%) of NK92 on K562, 100 nM antibody (control) [1]: 9.2%

Experiment on activity in PVRIG reporter cells EC50 [2]: 1.38 nM
IFNγ (pg/mL) in mixed lymphocyte reaction, 4 nM antibody [3]: 912 pg/mL
IFNγ (pg/mL) in mixed lymphocyte reaction, 20 nM antibody [3]: 1420 pg/mL
IFNγ (pg/mL) in mixed lymphocyte reaction, 100 nM antibody [3]: 2350 pg/mL
Experiment on activity in PVRIG reporter cells EC50 [4]: 0.74 nM
B1: positive antibody Tab5 (antibody, human IgG4 S228P, kappa, F234A L235A, V domains shown)
VH: EVQLVESGGGVVKPGGSLRLSCAASGFTFGTSSMNWVRQAPGKGLEWVAVISFDGTEIHYADSVKGRFTISRDNSKSTVFLQMNSLRPDDTALYYCAKGSGNIYFYSGMDVWGQGTTVTVSS
VL: DIQMTQSPSTLSASVGDRVTITCRAGQSISGWLAWFQQKPGKAPNLLIYETSTLESGVPSRFSGSGSGTEYTLTISSLQPDDFATYYCQQYYSYPLTFGQGTKVEIKR
Killing activity (%) of NK92 on K562, 4 nM antibody [5]: 5.9%
Killing activity (%) of NK92 on K562, 20 nM antibody [5]: 7.9%
Killing activity (%) of NK92 on K562, 100 nM antibody [5]: 10%
Killing activity (%) of NK92 on K562, 20 nM antibody [6]: 32%
Killing activity (%) of NK92 on K562, 100 nM antibody [6]: 32%

binding result [7]: no binding (tested: about 20 nM)
binding result [8]: no binding (tested: about 200 nM)
B2: anti-TIGIT antibody 1708 (antibody, human IgG4 S228P, kappa, V domains shown)
VH: EVQLVQSGAEVKKPGASVKVSCKASGYTFTNYWMHWVRQAPGQGLEWMGRIDPDSTGSKYNEKFKTRVTMTRDTSTSTVYMELSSLRSEDTAVYYCAREGAYGYYFDYWGQGTLVTVSS
VL: DIQMTQSPSSLSASVGDRVTITCRASENIYSYLAWYQQKPGKSPKLLIYNARTLAEGVPSRFSGSGSGTDFTLTISSLQPEDFATYYCQYHSGSPLPFGGGTKVEIKR
notes: human IgG4 subtype with S228P; kappa light chain
